MFI data for 1 substance are collected here from patent US20120201794A1.

The target in assay [1] is C46 protein (membrane anchored fusion inhibitor derived from the C-terminal heptad repeat of HIV gp41 fused with a human immunoglobulin hinge region and a CD34 transmembrane domain) (HIV gp41 heptad repeat fused to human immunoglobulin hinge and CD34 transmembrane domain). Put plainly: flow cytometry, 2F5 staining of Molt4/CCR5 cells transduced with the sh5/C46 lentiviral construct (untransduced background 344.6). On the technique in general: In flow cytometry, cells or beads pass a laser one at a time.

Assay [2] has the same target. Put plainly: flow cytometry, 2F5 staining of Molt4/CCR5 cells transduced with the C46 lentiviral construct (untransduced background 344.6).

With 2F5 antibody, the MFI was 1170 in assay [1] and 1450 in assay [2].
